Test results as given in paper PMC8481289, “Structural basis for UFM1 transfer from UBA5 to UFC1” (Nature Communications, 2021).
Each block holds one binder with its values, some of them ahead of it.

B3: UFC1 (WT) (enzyme, human)
chain: MADEATRRVVSEIPVLKTNAGPRDRELWVQRLKEEYQSLIRYVENNKNADNDWFRLESNKEGTRWFGKCWYIHDLLKYEFDIEFDIPITYPTTAPEIAVPELDGKTAKMYRGGKICLTDHFKPLWARNVPKFGLAHLMALGLGPWLAVEIPDLIQKGVIQHKEKCNQ
notes: UFC1, the E2 of UFM1; active site C116; 15N-labelled (M9 medium with 15NH4Cl) for the NMR titrations; In the two crystal structures UFC1 stood as part of a fusion chain; also called E2

Key:
Conditions in all cases: both partners purified
UFC1 (WT) [1] = molecular target: B3; assay: ITC; UFC1 titrated into the UBA5 construct (heat per mole of UFC1); MicroCal PEAQ ITC, 25 °C; 20 mM Tris pH 7.5, 50 mM NaCl, 2 mM DTT; 19 injections of 2 μl; fitted to the two sets of sites model
UFC1 (WT) [2] = molecular target: B3; assay: crystal structure; UBA5(389-404) fused to the C-terminus of UFC1; 2.4 Å; the UBS binds the UFC1 of a fusion molecule of another asymmetric unit; 35 mM citric acid, 65 mM bis-tris propane, 19% PEG3350, 100 mM LiCl, 20 °C
UBA5 Y372A = molecular target: T1, UBA5 Y372A (human, UniProt Q9GZZ9 1-404, Y372A); assay: ITC; UFC1 titrated into the UBA5 construct (heat per mole of UFC1); MicroCal PEAQ ITC, 25 °C; 20 mM Tris pH 7.5, 50 mM NaCl, 2 mM DTT; 19 injections of 2 μl; fitted to the two sets of sites model
T1 construct: UBA5, human, point mutant in the linker between UIS and UBS

[3] = molecular target: T2, UBA5 double mutant C250A and A371C (human, UniProt Q9GZZ9 1-404, C250A | A371C); assay: cross-linking; disulfide trapping: DPDS-activated UFC1-NC (4 μM) mixed with 2 μM UBA5 (WT or mutants) in PBS, 25 °C, 20 min; non-reducing SDS-PAGE, Coomassie
T2 construct: UBA5, human, active site Cys removed and a Cys placed in the linker

UBA5 WT = molecular target: T3, UBA5 WT (human, UniProt Q9GZZ9 1-404); assay: as above
T3 construct: UBA5, human; active site C250; also called E1

UFC1 (WT) [4] = molecular target: B3; assay: crystal structure; UBA5(347-404) fused to the N-terminus of UFC1; 2.65 Å; the UBS binds the UFC1 of a molecule of another asymmetric unit; 2% tacsimate pH 7.0, 20% PEG 3350, 0.1 M HEPES pH 7.5, 6 mM zinc sulfate, 20 °C

Kd (UFC1 (WT) [1]): 5.5 µM
B1: UBA5(Δ349-389) (enzyme, human)
chain: MAESVERLQQRVQELERELAQERSLQVPRSGDGGGGRVRIEKMSSEVVDSNPYSRLMALKRMGIVSDYEKIRTFAVAIVGVGGVGSVTAEMLTRCGIGKLLLFDYDKVELANMNRLFFQPHQAGLSKVQAAEHTLRNINPDVLFEVHNYNITTVENFQHFMDRISNGGLEEGKPVDLVLSCVDNFEARMTINTACNELGQTWMESGVSENAVSGHIQLIIPGESACFACAPPLVVAANIDEKTLKREGVCAASLPTTMGVVAGILVQNVLKFLLNFGTVSFYLGYNAMQDFFPTMSMKPNPQCDDRNCRKQQEEYKKKVAALPKQEVIQEEEEIIHEDNEWGIELVSEGSGSGESLEDLMAKMKNM
notes: UBA5, human, up to residue 348; UBA5, human, from residue 390 to the C-terminus (holds the UBS); Linker between UIS and UBS removed, UBS kept

binding result (UFC1 (WT) [2]): binds
B2: UBA5 (389-404) (domain or fragment, human, UniProt Q9GZZ9 389-404, looked up)
chain: DSGESLEDLMAKMKNM
notes: UBA5, human, residues 389-404 (holds the UBS); Never stood alone: it was fused to the C-terminus of UFC1 for the crystal structure; also called UBS; source: E. coli T7 express, purified, as part of the fusion UFC1-UBA5(389-404)

Binder: B3
binding result (UBA5 Y372A): binds

binding result [3]: binds | binding result (UBA5 WT): binds
B4: UFC1-NC (enzyme, human)
chain: MADEATRRVVSEIPVLKTNAGPRDRELWVQRLKEEYQSLIRYVENNKNADNDWFRLESNKEGTRWFGKSWYIHDLLKYEFDIEFDIPITYPTTAPEIAVPELDGKTAKMYRGGKICLTDHFKPLWARNVPKFGLAHLMALGLGPWLAVEIPDLIQKGVIQHKEKSNQ
modifications: activated with the crosslinker 2,2' dithiodipyridyldisulfide (DPDS); only the active site C116 is left
notes: UFC1 with C69 and C165 mutated to serine, leaving only the active site C116

binding result (UFC1 (WT) [4]): binds
B5: UBA5(347–404) (domain or fragment, human, UniProt Q9GZZ9 347-404, looked up)
chain: SEVSEEELKNFSGPVPDLPEGITVAYTIPKKQEDSVTELTVEDSGESLEDLMAKMKNM
notes: In the crystal structure 7NVK the same stretch stood fused to the N-terminus of UFC1
